Experimental data reported in patent publication US20230416396A1 (Regeneron, published 2023).
Read-outs that look alike come from different tables or passages of the source. Each block holds one binder with its values, some of them ahead of it.

Assays:
[1] = molecular target: T1, human 4-1BB on cells (human, UniProt Q07011 24-255); test: cell-based or functional assay
[2] = molecular target: T1, human 4-1BB on cells; test: cell-based or functional assay; remark: listed apart in the source
[3] = molecular target: T2, human CD38 endogenously expressed on MOLP8 cells (human, UniProt P28907 1-300); test: flow cytometry on MOLP8 cells (endogenous hCD38), APC anti-human secondary
T2 construct: whole, on cells; also called hCD38
Procedure: (§1) The ability of the multispecific antigen binding molecules to bind cells was assessed using flow cytometry. Cell lines were chosen to determine the ability of both the anti-CD38 and anti-4-1BB arms to bind their targets. […] Binding was detected by using a labeled secondary antibody and measuring fluorescence on a flow cytometer.
HEK293 cells were lifted with trypsin, washed and resuspend in stain buffer (2% FBS in PBS). MOLP8 cells were washed and resuspended in stain buffer. Cells were added to wells of a 96 well V-bottom plate (3×10⁵ cells/well). A 1:4, 9-point, dose titration of test antibodies was diluted in stain buffer and added to cells to a final concentration ranging from 610 fM to 10 nM (a “no antibody” control was included as the ninth point (153fM), labeled as “secondary only”). Cells and antibodies were incubated for 30 min on ice and then washed in stain buffer. Cells were resuspended in 2 ug/ml allophycocyanin (APC) conjugated goat-anti human secondary antibody and incubated for 30 min on ice. Cells were then washed and resuspended in viability dye (according to the manufacturer's protocol) and incubated for 30 min on ice. Cells were then washed with stain buffer and resuspended in 2% PFA for 30 min on ice. After washing, cells were filtered and analyzed by flow cytometry to determine the geometric mean fluorescence intensity (gMFI), which was subsequently plotted using GraphPad Prism software. EC₅₀ values of the antibodies were determined from a 4-parameter logistic equation over a 9-point dose response curve (including secondary only control, representing the ninth point).

[4] = molecular target: T1, human 4-1BB on cells; test: flow cytometry on HEK293/h4-1BB cells, APC anti-human secondary
Procedure: as §1
HEK293 and HEK293/4-1BB cells were lifted with trypsin, washed and resuspended in stain buffer (2% FBS in PBS) and added to wells of a 96 well V-bottom plate (3×10⁵ cells/well). A 1:5, 9-point, dose titration of test antibodies was diluted in stain buffer and added to cells to a final concentration ranging from 1.3 pM to 100 nM (a “no antibody” control was included as the ninth point ([…]) labeled as “secondary only”). Cells and antibodies were incubated for 30 min on ice and then washed in stain buffer. Cells were resuspended in 2 ug/ml allophycocyanin (APC) conjugated goat-anti human secondary antibody and incubated for 30 min on ice. Cells were then washed and resuspended in viability dye (according to the manufacturer's protocol) and incubated for 30 min on ice. Cells were then washed with stain buffer and resuspended in 2% PFA for 30 min on ice. After washing, cells were filtered and analyzed by flow cytometry to determine the geometric mean fluorescence intensity (gMFI), which was subsequently plotted using GraphPad Prism software. EC₅₀ values of the antibodies were determined from a 4-parameter logistic equation over a 9-point dose response curve (including secondary only control).

[5] = molecular target: T1, human 4-1BB on cells; test: cell-based or functional assay; remark: listed apart in the source

T1 sequence (Q07011 24-255): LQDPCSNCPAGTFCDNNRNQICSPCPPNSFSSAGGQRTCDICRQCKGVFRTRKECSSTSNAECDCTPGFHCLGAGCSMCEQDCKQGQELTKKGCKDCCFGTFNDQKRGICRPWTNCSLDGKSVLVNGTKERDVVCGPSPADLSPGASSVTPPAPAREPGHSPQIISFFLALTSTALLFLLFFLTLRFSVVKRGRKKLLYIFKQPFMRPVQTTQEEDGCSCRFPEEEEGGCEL

EC50 of IL-2 release, T cells + HEK293/CD20/CD38 + REGN1979 [1]: ~0.1 nM
EC50 of IL-2 release, T cells + MOLP-8 + REGN5458 [1]: 63.4 nM
MAX IL-2 release, T cells + HEK293/CD20 + REGN1979 [1]: 182 pg/mL
MAX IL-2 release, T cells + HEK293/CD20/CD38 + IsoC [1]: 12 pg/mL
MAX IL-2 release, T cells + HEK293/CD20/CD38 + REGN1979 [1]: 1300 pg/mL
MAX IL-2 release, T cells + MOLP-8 + IsoC [1]: 163 pg/mL
MAX IL-2 release, T cells + MOLP-8 + REGN5458 [1]: 308 pg/mL
EC50 of IFNγ release, T cells + HEK293/CD20/CD38 + REGN2281 [2]: 0.78 nM
EC50 of IFNγ release, T cells + MOLP-8 + REGN5458 [2]: 43.8 nM
MAX IFNγ release, T cells + HEK293/CD20 + REGN2281 [2]: 1840 pg/mL
MAX IFNγ release, T cells + HEK293/CD20/CD38 + REGN2281 [2]: 3950 pg/mL
MAX IFNγ release, T cells + MOLP-8 + IsoC [2]: 56 pg/mL
MAX IFNγ release, T cells + MOLP-8 + REGN5458 [2]: 1300 pg/mL
MAX IFNγ release, T cells + NALM-6 [2]: 620 pg/mL
MAX gMFI [3]: 210000 gMFI
EC50 [4]: 2.86 nM
MAX gMFI [4]: 2.4e+06 gMFI
EC50 of IL-2 release, T cells + NALM-6 [5]: 0.108 nM
MAX IL-2 release, T cells + HEK293/CD20 + REGN2281 [5]: 63 pg/mL
MAX IL-2 release, T cells + HEK293/CD20/CD38 + REGN2281 [5]: 593 pg/mL
MAX IL-2 release, T cells + MOLP-8 + IsoC [5]: 48 pg/mL
MAX IL-2 release, T cells + MOLP-8 + REGN5458 [5]: 32 pg/mL
MAX IL-2 release, T cells + NALM-6 [5]: 122 pg/mL
B1: REGN7150 (bispecific antibody, human IgG4 S228P, kappa)
heavy 1: QVQLVQSGAEVKKPGSSVKVSCKASGGPFRSSSFSWVRQAPGQGLEWMGGIIPILGKTNYAQKFQGRITIVTDESTTTVYMELSSLRSEDTAVFYCVRGSSLFDYWGQGTLVTVSSASTKGPSVFPLAPCSRSTSESTAALGCLVKDYFPEPVTVSWNSGALTSGVHTFPAVLQSSGLYSLSSVVTVPSSSLGTKTYTCNVDHKPSNTKVDKRVESKYGPPCPPCPAPPVAGPSVFLFPPKPKDTLMISRTPEVTCVVVDVSQEDPEVQFNWYVDGVEVHNAKTKPREEQFNSTYRVVSVLTVLHQDWLNGKEYKCKVSNKGLPSSIEKTISKAKGQPREPQVYTLPPSQEEMTKNQVSLTCLVKGFYPSDIAVEWESNGQPENNYKTTPPVLDSDGSFFLYSRLTVDKSRWQEGNVFSCSVMHEALHNHYTQKSLSLSLGK
heavy 2: QVQLVQSGAEVKKPGASVKVSCKASAYTFTSYGFSWVRQAPGQGLEWMGWISTSNGYTNYAQKIQDRVTMTTDTSTSTAYMELRSLRSDDTAVYYCASLSNWVSFFDYWGQGTLVTVSSASTKGPSVFPLAPCSRSTSESTAALGCLVKDYFPEPVTVSWNSGALTSGVHTFPAVLQSSGLYSLSSVVTVPSSSLGTKTYTCNVDHKPSNTKVDKRVESKYGPPCPPCPAPPVAGPSVFLFPPKPKDTLMISRTPEVTCVVVDVSQEDPEVQFNWYVDGVEVHNAKTKPREEQFNSTYRVVSVLTVLHQDWLNGKEYKCKVSNKGLPSSIEKTISKAKGQPREPQVYTLPPSQEEMTKNQVSLTCLVKGFYPSDIAVEWESNGQPENNYKTTPPVLDSDGSFFLYSRLTVDKSRWQEGNVFSCSVMHEALHNRFTQKSLSLSPGK
light: not shown
notes: 1+1 format control, hIgG4P-PVA, common 3-20 light chain; also called CD38x4-1BB (1 + 1); 26871P2 x 25921P

MAX gMFI [3]: 88000 gMFI
B2: REGN7633 (bispecific antibody, human IgG4 S228P, kappa)
heavy 1: QVQLVQSGPEVKNPGAAVKVSCKASGYTFTRFGISWVRQAPGQGLEWMGWISVDNGNANYAQRFQGRVTMTTDTSTSTAYMELRSLRSDDTAVYYCAREWSIAAPGYLDYWGQGTLVTVSSASTKGPSVFPLAPCSRSTSESTAALGCLVKDYFPEPVTVSWNSGALTSGVHTFPAVLQSSGLYSLSSVVTVPSSSLGTKTYTCNVDHKPSNTKVDKRVESKYGPPGGGGSGGGGSGGGGSEVQLVESGGGLVQPGRSLRLSCAASGYTFDDYAMHWVRQAPGKGLEWVSGISWISDVIGYADSVKGRFTISRDNAKNSLYLQMNSLRAEDTALYYCAKDNGGIIVATHYYSYGMDVWGQGTTVTVSSASTKGPSVFPLAPCSRSTSESTAALGCLVKDYFPEPVTVSWNSGALTSGVHTFPAVLQSSGLYSLSSVVTVPSSSLGTKTYTCNVDHKPSNTKVDKRVESKYGPPCPPCPAPPVAGPSVFLFPPKPKDTLMISRTPEVTCVVVDVSQEDPEVQFNWYVDGVEVHNAKTKPREEQFNSTYRVVSVLTVLHQDWLNGKEYKCKVSNKGLPSSIEKTISKAKGQPREPQVYTLPPSQEEMTKNQVSLTCLVKGFYPSDIAVEWESNGQPENNYKTTPPVLDSDGSFFLYSRLTVDKSRWQEGNVFSCSVMHEALHNRFTQKSLSLSPGK
heavy 2: EVQLVESGGGLVQPGRSLRLSCAASGFTFDDYAMHWVRQAPGKGLEWVSGISWKSDNIGYADSVKGRFTISRDNAKNSLYLQMNSLRAEDTALYYCAKALGGWKFDYYYGMDVWGQGTTVTVSSASTKGPSVFPLAPCSRSTSESTAALGCLVKDYFPEPVTVSWNSGALTSGVHTFPAVLQSSGLYSLSSVVTVPSSSLGTKTYTCNVDHKPSNTKVDKRVESKYGPPCPPCPAPPVAGPSVFLFPPKPKDTLMISRTPEVTCVVVDVSQEDPEVQFNWYVDGVEVHNAKTKPREEQFNSTYRVVSVLTVLHQDWLNGKEYKCKVSNKGLPSSIEKTISKAKGQPREPQVYTLPPSQEEMTKNQVSLTCLVKGFYPSDIAVEWESNGQPENNYKTTPPVLDSDGSFFLYSRLTVDKSRWQEGNVFSCSVMHEALHNHYTQKSLSLSLGK
light: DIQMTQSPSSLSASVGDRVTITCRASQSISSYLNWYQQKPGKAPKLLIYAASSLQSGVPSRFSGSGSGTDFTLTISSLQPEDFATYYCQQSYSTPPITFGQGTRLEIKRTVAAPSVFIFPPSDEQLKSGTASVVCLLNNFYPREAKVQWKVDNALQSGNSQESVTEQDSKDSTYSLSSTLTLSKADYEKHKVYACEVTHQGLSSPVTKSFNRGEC
notes: 1+2 format, hIgG4P-PVA; also called CD38x4-1BB (1 + 2); 26812P2 x 25889P2 (IN) + 35388P2 (OUT)
